Source: paper doi:10.1101/2024.09.24.614694

Target: CLuc-TaVIH2 (Triticum aestivum (wheat))
Test: split reporter

fold increase of luminescence (RLU) over controls: 7 to 8 fold
Substance: NLuc-TaFLA7 (natural protein)
